Data taken from patent publication US20070254831A1 (published 2007).
Where two headings read alike, the source gives them in different places. Bridge positions count the residues as written; N and C are the ends. Square brackets hold non-standard residues; d marks the D form. Ends that are not written are not given here. Pen = CC(C)(S)[C@H](N)C(=O)O

How the values were obtained:
[1] = target: T1, soluble human FcRn (human, UniProt P55899 24-297; P61769 21-119, biotinylated (Sulfo-NHS-LC-Biotin) in the ELISA; amine-coupled to CM5 chip in SPR); assay: SPR, pH 7.4
T1 construct: also called shFcRn; biotinylated shFcRn
T1 sequence (P55899 24-297 limits assumed, chain 1 of 2): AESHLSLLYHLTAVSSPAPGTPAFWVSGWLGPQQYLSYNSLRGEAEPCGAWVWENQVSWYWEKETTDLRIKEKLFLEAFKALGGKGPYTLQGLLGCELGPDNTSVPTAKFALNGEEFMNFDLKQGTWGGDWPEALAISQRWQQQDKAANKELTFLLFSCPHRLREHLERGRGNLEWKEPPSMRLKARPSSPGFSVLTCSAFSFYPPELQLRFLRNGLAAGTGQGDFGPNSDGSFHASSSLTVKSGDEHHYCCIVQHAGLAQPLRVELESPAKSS
T1 sequence (P61769 21-119 limits assumed, chain 2 of 2): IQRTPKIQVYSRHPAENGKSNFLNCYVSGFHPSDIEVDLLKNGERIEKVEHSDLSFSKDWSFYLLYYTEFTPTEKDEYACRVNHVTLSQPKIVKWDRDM
Method: (§1) The following steps were performed to cross-link soluble human or cynomolgus FcRn to the dextran surface of a CM5 sensor chip (Biacore AB, Uppsala, Sweden) by an amine coupling reaction involving 1-ethyl-(3-dimethylaminopropyl)-carbodiimide hydrochloride (EDC) (Biacore AB, Uppsala, Sweden) and N-hydroxysuccinimide (NHS) (Biacore AB, Uppsala, Sweden) as recommended by Biacore (BIAapplications Handbook, version AB, section 4.2, Biacore AB, Uppsala, Sweden). […] Residual sites on the FcRn flow cell were blocked with 1 M ethanolamine hydrochloride pH 8.5 (Biacore AB, Uppsala, Sweden). A control flow cell was blocked with ethanolamine for reference subtraction. For analysis of the monomeric peptides, FcRn was coated to a final density of 4000-5000 response units (RU). For analysis of the peptide dimers, FcRn was coated to a density of 2000-2500 RU. All SPR measurements were performed using a BIACORE 3000 Instrument (Biacore AB Uppsala, Sweden). For measurements done at either pH 6 or pH 7.4, experiments were performed in 50 mM phosphate, 100 mM sodium chloride, 0.01% surfactant P20 (Biacore AB, Uppsala, Sweden).
(§2) Ten, 2-fold dilutions of the peptide were injected over the FcRn-CM5 chip at a rate of 20 μl/min for 2 min. The peptide was dissociated from the chip for 2.5 minutes with buffer. Any remaining peptide was removed from the chip with a 30 second injection of HBS-P buffer (Biacore AB, Uppsala, Sweden) at a rate of 30 μl/min. Sensorgrams were generated and analyzed using BiaEval software version 3.1 (Biacore AB, Uppsala, Sweden). The equilibrium RU observed for each injection was plotted against concentration. The equilibrium KD values were derived by analysis of the plots using the steady state affinity model included in the BiaEval software.

[2] = target: T1, soluble human FcRn; assay: SPR, pH 6
Method: as §1, §2

[3] = target: T1, soluble human FcRn; assay: ELISA, competitor human IgG
Method: (§3) The wells were coated with 100 μl/well of 1 μg/ml biotinylated-shFcRn in Buffer A. The plate was sealed and incubated at 37° C. for 2 hours. Afterwards, the plate washed with 200 μl/well of Buffer B (Buffer B: 100 mM MES pH 6, 150 mM NaCl, 0.5% BSA IgG-free (Jackson ImmunoResearch, West Grove, Pa.), 0.05% Tween-20). […] To allow for mixing, the plate was rocked for 2 minutes, sealed and incubated at 37° C. for 2 hours. […] The plate was covered, incubated for 30 minutes at room temperature and washed 4 times with 200 μl/well of ice-cold buffer B. SureBlue TMB substrate solution (100 μl/well, KPL, Gaithersburg, Md.) was added and the plate was allowed to incubate at room temperature until color developed, which took 5 to 10 minutes. Once color developed, 100 μl/well of TMB stop solution (KPL, Gaithersburg, Md.) was added and the absorbance was measured at 450 nm. The data was plotted as absorbance vs. peptide concentration to derive the inhibitory concentration 50% (IC₅₀) values.

[4] = target: T1, soluble human FcRn; assay: ELISA, competitor human IgG; remark: listed apart in the source
Method: as §3

[5] = target: T1, soluble human FcRn; assay: SPR, pH 6; remark: listed apart in the source
Method: as §1, §2

[6] = target: T1, soluble human FcRn; assay: SPR, pH 7.4; remark: listed apart in the source
Method: as §1, §2

[7] = target: T1, soluble human FcRn; assay: ELISA, competitor human IgG; remark: listed apart in the source
Method: as §3

[8] = target: T1, soluble human FcRn; assay: SPR, pH 6; remark: listed apart in the source
Method: as §1, §2

[9] = target: T1, soluble human FcRn; assay: SPR, pH 6; remark: listed apart in the source
Method: as §1, §2

[10] = target: T1, soluble human FcRn; assay: SPR, pH 6; remark: listed apart in the source
Method: as §1, §2

[11] = target: T1, soluble human FcRn; assay: ELISA, competitor human IgG; remark: listed apart in the source
Method: as §3

[12] = target: T1, soluble human FcRn; assay: ELISA, competitor human IgG; remark: listed apart in the source
Method: as §3

[13] = target: T1, soluble human FcRn; assay: SPR, pH 6; remark: listed apart in the source
Method: as §1, §2

[14] = target: T1, soluble human FcRn; assay: ELISA, competitor human IgG; remark: listed apart in the source
Method: as §3

QRFCTGHFGGLYPC-NH2 (disulfide 4-14 (inferred)) [SEQ ID NO:18]
Kd [1]: 26 µM

QRFCTGHFGGLYPCN-NH2 (disulfide 4-14 (inferred)) [SEQ ID NO:24]
Kd [1]: 73 µM
Kd [2]: 6.1 µM

CTGHFGGLYPCNGP-NH2 (disulfide 1-11 (inferred)) [SEQ ID NO:17]
IC50 [3]: 239 µM
Kd [2]: 34 µM

FCTGHFGGLYPCNGP-NH2 (disulfide 2-12 (inferred)) [SEQ ID NO:22]
IC50 [3]: 67 µM
Kd [2]: 11 µM

TGHFGGLYP-NH2 [SEQ ID NO:20]
IC50 [3]: > 250 µM

QRFXTGHFGXLYPCNGP (Pen at 4; Aib (aminoisobutyric acid) at 10; disulfide; C-terminal amide) [Peptide No. 46]
IC50 [4]: 2.4 µM
Kd [5]: 0.48 µM
Kd [6]: 5.3 µM

B1: Peptide No. 246 (peptide)
peptide: RFVTGHFG[dP]WYPA-NH2
modifications: N-terminus assumed
SMILES: CC(C)[C@H](NC(=O)[C@H](Cc1ccccc1)NC(=O)[C@@H](N)CCCNC(=N)N)C(=O)N[C@H](C(=O)NCC(=O)N[C@@H](Cc1c[nH]cn1)C(=O)N[C@@H](Cc1ccccc1)C(=O)NCC(=O)N1CCC[C@@H]1C(=O)N[C@@H](Cc1c[nH]c2ccccc12)C(=O)N[C@@H](Cc1ccc(O)cc1)C(=O)N1CCC[C@H]1C(=O)N[C@@H](C)C(N)=O)[C@@H](C)O
IC50 [7]: 60 µM
Kd [8]: 3.6 µM

RFXTGHFGGLYPC (Pen at 3; Sar at 9; NMeLeu at 10; disulfide; C-terminal amide) [Peptide No. 235]
Kd [9]: 0.031 µM
Kd [10]: 0.031 µM

RFXTGHFVGLYPC (Pen at 3; D-Val at 8; Sar at 9; NMeLeu at 10; disulfide; C-terminal amide) [Peptide No. 218]
IC50 [11]: > 50 µM

RFXTGHFTGLYPC (Pen at 3; D-Thr at 8; Sar at 9; NMeLeu at 10; disulfide; C-terminal amide) [Peptide No. 240]
IC50 [11]: 71 µM
Kd [10]: 4.8 µM

RFXTGHFNGLYPC (Pen at 3; D-Asn at 8; Sar at 9; NMeLeu at 10; disulfide; C-terminal amide) [Peptide No. 243]
IC50 [11]: 29 µM
Kd [10]: 2.1 µM

RFXTGHFLGLYPC (Pen at 3; D-Leu at 8; Sar at 9; NMeLeu at 10; disulfide; C-terminal amide) [Peptide No. 219]
IC50 [11]: 4 µM
Kd [10]: 0.47 µM

RFXTGHFEGLYPC (Pen at 3; D-Glu at 8; Sar at 9; NMeLeu at 10; disulfide; C-terminal amide) [Peptide No. 244]
IC50 [11]: 6.4 µM
Kd [10]: 0.58 µM

RFXTGHFSGLYPC (Pen at 3; D-Ser at 8; Sar at 9; NMeLeu at 10; disulfide; C-terminal amide) [Peptide No. 241]
IC50 [11]: 23 µM
Kd [10]: 1.1 µM

RFXTGHFFGLYPC (Pen at 3; D-Phe at 8; Sar at 9; NMeLeu at 10; disulfide; C-terminal amide) [Peptide No. 217]
Kd [10]: 1.4 µM

CTGHFGGLYPC-NH2 (disulfide 1-11 (inferred)) [SEQ ID NO:19]
Kd [1]: 320 µM
IC50 [3]: 110 µM
Kd [2]: 20 µM

QRFSTGHFGGLYPSNGP-NH2 [Peptide No. 71]
IC50 [7]: > 125 µM
Kd [8]: 230 µM

QRFXTGHFGPLYPCNGP (Pen at 4; D-Pro at 10; disulfide; C-terminal amide) [Peptide No. 40]
IC50 [4]: 1.4 µM
Kd [6]: 1.1 µM

QRFXTGHFGGWYPCNGP (Pen at 4; Sar at 10; disulfide; C-terminal amide) [Peptide No. 238]
IC50 [12]: 1 µM

QRFXTGHFGHLYPCNGP (Pen at 4; D-His at 10; disulfide; C-terminal amide) [Peptide No. 42]
Kd [5]: 2 µM
Kd [6]: 20 µM

B2: Peptide No. 41 (peptide)
peptide: QRF[Pen]TGHFG[dR]LYPCNGP-NH2
modifications: disulfide 4-14; N-terminus assumed
SMILES: CC(C)C[C@@H]1NC(=O)[C@@H](CCCNC(=N)N)NC(=O)CNC(=O)[C@H](Cc2ccccc2)NC(=O)[C@H](Cc2c[nH]cn2)NC(=O)CNC(=O)[C@H]([C@@H](C)O)NC(=O)[C@@H](NC(=O)[C@H](Cc2ccccc2)NC(=O)[C@H](CCCNC(=N)N)NC(=O)[C@@H](N)CCC(N)=O)C(C)(C)SSC[C@@H](C(=O)N[C@@H](CC(N)=O)C(=O)NCC(=O)N2CCC[C@H]2C(N)=O)NC(=O)[C@@H]2CCCN2C(=O)[C@H](Cc2ccc(O)cc2)NC1=O
IC50 [4]: 8.1 µM
Kd [5]: 0.83 µM
Kd [6]: 8.8 µM

QRFXTGHFDGLYPCNGP (Pen at 4; D-Asp at 9; disulfide; C-terminal amide) [Peptide No. 47]
Kd [5]: 0.58 µM
Kd [6]: 4.9 µM

QRFXTGHFGILYPCNGP (Pen at 4; D-Ile at 10; disulfide; C-terminal amide) [Peptide No. 43]
IC50 [4]: 18 µM
Kd [6]: 41 µM

QRFXTGHFGFLYPCNGP (Pen at 4; D-Phe at 10; disulfide; C-terminal amide) [Peptide No. 44]
Kd [5]: 1.7 µM
Kd [6]: 100 µM

B3: Peptide No. 169 (peptide)
peptide: QRFVTGHFG[dP]LYPINGP-NH2
modifications: N-terminus assumed
SMILES: CC[C@H](C)[C@H](NC(=O)[C@@H]1CCCN1C(=O)[C@H](Cc1ccc(O)cc1)NC(=O)[C@H](CC(C)C)NC(=O)[C@H]1CCCN1C(=O)CNC(=O)[C@H](Cc1ccccc1)NC(=O)[C@H](Cc1c[nH]cn1)NC(=O)CNC(=O)[C@@H](NC(=O)[C@@H](NC(=O)[C@H](Cc1ccccc1)NC(=O)[C@H](CCCNC(=N)N)NC(=O)[C@@H](N)CCC(N)=O)C(C)C)[C@@H](C)O)C(=O)N[C@@H](CC(N)=O)C(=O)NCC(=O)N1CCC[C@H]1C(N)=O
IC50 [7]: 72 µM
Kd [8]: 15 µM

B4: Peptide No. 211 (peptide)
peptide: FVTGHFG[dP]WYPA-NH2
modifications: N-terminus assumed
SMILES: CC(C)[C@H](NC(=O)[C@@H](N)Cc1ccccc1)C(=O)N[C@H](C(=O)NCC(=O)N[C@@H](Cc1c[nH]cn1)C(=O)N[C@@H](Cc1ccccc1)C(=O)NCC(=O)N1CCC[C@@H]1C(=O)N[C@@H](Cc1c[nH]c2ccccc12)C(=O)N[C@@H](Cc1ccc(O)cc1)C(=O)N1CCC[C@H]1C(=O)N[C@@H](C)C(N)=O)[C@@H](C)O
IC50 [7]: 100 µM
Kd [8]: 8 µM

QAFCTGHFGGLYPCNGP-NH2 (disulfide 4-14 (inferred)) [SEQ ID NO:25]
Kd [13]: 7.7 µM
IC50 [14]: 23 µM

QRACTGHFGGLYPCNGP-NH2 (disulfide 4-14 (inferred)) [SEQ ID NO:26]
Kd [13]: 28 µM
IC50 [14]: 95 µM

QRFCAGHFGGLYPCNGP-NH2 (disulfide 4-14 (inferred)) [SEQ ID NO:27]
Kd [13]: 4.9 µM
IC50 [14]: 30 µM

QRFCTGHFGGLYPCAGP-NH2 (disulfide 4-14 (inferred)) [SEQ ID NO:36]
Kd [13]: 8 µM
IC50 [14]: 30 µM
